Read-outs that look alike come from different tables or passages of the source.
Tests used:
[1] = target: MBP-Vpu fusion protein (His8-MBP-linker-full-length HIV-1 Vpu, Q36C) (HIV-1); test: SEC
[2] = target: MBP-Vpu fusion protein (His8-MBP-linker-full-length HIV-1 Vpu, Q36C) (HIV-1); test: SEC; remark: listed apart in the source
[3] = target: MBP-Vpu fusion protein spin-labeled at residue Q36C (HIV-1); test: DEER
[4] = target: MBP-Vpu fusion protein spin-labeled at residue Q36C (HIV-1); test: DEER; remark: listed apart in the source
[5] = target: MBP-Vpu fusion protein spin-labeled at residue Q36C (HIV-1); test: DEER; remark: listed apart in the source

Substance	stoichiometry N [1]	stoichiometry N [2]	DEER modulation depth [3]	stoichiometry N [3]	stoichiometry N [4]	DEER modulation depth [5]
MBP-Vpu fusion protein (His8-MBP-linker-full-length HIV-1 Vpu, Q36C)	5	5				
MBP-Vpu fusion protein spin-labeled at residue Q36C			0.24	> 3	5	0.56

— paper PMC10257199
